# Read-outs that look alike come from different tables or passages of the source.
# Experiments:
# [1] = molecular target: GAN·GINS complex of Thermococcus kodakarensis, formed on the SPR chip from the purified recombinant proteins (Thermococcus kodakarensis); experiment: SPR
# [2] = molecular target: GAN·GINS complex of Thermococcus kodakarensis, formed on the SPR chip from the purified recombinant proteins (Thermococcus kodakarensis); experiment: SPR; remark: listed apart in the source
substance,measurement,setting,value
"MCM3 (minichromosome maintenance helicase) of Thermococcus kodakarensis, homohexamer, recombinant (enzyme)",Kd,[1],190 nM
same,Kd,[2],180 nM

# Reference: PMC5737688
